The text below walks through data of paper PMC3019557 (The Journal of Cell Biology, 2011).

In this experiment the target is T1, CFP-PPARγ2 (peroxisome proliferator activated receptor γ2 fused to ECFP) (UniProt P37231-1 1-505).
T1 sequence (looked up): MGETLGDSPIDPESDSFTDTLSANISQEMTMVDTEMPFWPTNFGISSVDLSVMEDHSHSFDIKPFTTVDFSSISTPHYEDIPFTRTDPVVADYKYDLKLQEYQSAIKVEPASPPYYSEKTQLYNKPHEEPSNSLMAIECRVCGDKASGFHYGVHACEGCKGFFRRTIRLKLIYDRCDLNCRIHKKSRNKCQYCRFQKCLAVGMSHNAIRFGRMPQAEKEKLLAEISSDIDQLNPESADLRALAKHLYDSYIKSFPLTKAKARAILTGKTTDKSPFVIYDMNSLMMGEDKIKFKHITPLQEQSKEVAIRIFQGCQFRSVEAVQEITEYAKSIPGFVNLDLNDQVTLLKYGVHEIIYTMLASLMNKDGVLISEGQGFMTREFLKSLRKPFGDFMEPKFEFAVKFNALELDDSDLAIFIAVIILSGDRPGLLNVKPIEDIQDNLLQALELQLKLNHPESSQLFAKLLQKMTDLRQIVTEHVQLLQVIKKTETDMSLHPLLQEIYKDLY
Briefly: FRET or BRET. For orientation: BRET reads energy transfer from a luciferase to a nearby fluorophore.

B1: EYFP-SRC-3 (steroid receptor coactivator 3 fused to EYFP) (natural protein)
chain: not shown
As to B1, the “fold change in FRET, MIX against vehicle” value is > 1.5 fold.

B2: EYFP-SRC-2 (steroid receptor coactivator 2 fused to EYFP) (natural protein)
chain: not shown
Take B2: the “fold change in FRET, MIX against vehicle” value was > 1.5 fold.
